We go through two molecules from article PMC4277889.

Like-named read-outs stand apart in the source and are kept apart here.

Data set [1] deals with T1, EpCAM (epithelial cell adhesion molecule) (UniProt P16422 24-265).
T1 sequence: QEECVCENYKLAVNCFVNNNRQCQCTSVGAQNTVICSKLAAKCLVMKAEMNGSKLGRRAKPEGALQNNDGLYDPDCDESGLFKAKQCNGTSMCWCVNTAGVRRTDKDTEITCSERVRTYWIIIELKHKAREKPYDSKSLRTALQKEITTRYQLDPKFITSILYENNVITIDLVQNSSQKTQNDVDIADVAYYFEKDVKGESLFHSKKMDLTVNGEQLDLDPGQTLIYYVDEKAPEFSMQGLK
The data set is described as follows: ACP fluorescence switching.

The target of data set [2] is T1, EpCAM (epithelial cell adhesion …). The data set can be described thus: ACP fluorescence switching. The source holds these as a separate data set.

B1: random sequence ACP (ssDNA)
DNA: TAAGTATATCGTGCCTGCGACTATGTTATGATGAGGCAGTCTTTAACCTGACTCGTAATA
modifications: 5' conjugated to polydiacetylene as JYK-01
As for B1, the binding result in data set [1] was “no binding”.

B2: JYK-01 ACP (polydiacetylene conjugate) (ssDNA)
DNA: TGAAGGTTCGTTGTTTCGGTGGGTGTAGACTCTTTAGAAGAGATACAGATTTTGGGAATG
modifications: 5' amine coupled to diacetylene monomer (TCDA) in polydiacetylene particle
For the molecule B2, the binding result in data set [2] is “binds”.
